From US20140228277A1 (Genentech, published 2014)
Positions of bridges follow the written chain, without caps; N, C: chain ends. No end group written: not given here.

Columns and labels:
[1] = target: T1, recombinant human BACE1 (rhBACE1) (human, UniProt P56817 22-457, limits assumed); test: spot phage ELISA, plate-immobilized BACE1 against BSA
[2] = target: T1, recombinant human BACE1 (rhBACE1); test: cell-based or functional assay

T1 sequence (P56817 22-457 limits assumed): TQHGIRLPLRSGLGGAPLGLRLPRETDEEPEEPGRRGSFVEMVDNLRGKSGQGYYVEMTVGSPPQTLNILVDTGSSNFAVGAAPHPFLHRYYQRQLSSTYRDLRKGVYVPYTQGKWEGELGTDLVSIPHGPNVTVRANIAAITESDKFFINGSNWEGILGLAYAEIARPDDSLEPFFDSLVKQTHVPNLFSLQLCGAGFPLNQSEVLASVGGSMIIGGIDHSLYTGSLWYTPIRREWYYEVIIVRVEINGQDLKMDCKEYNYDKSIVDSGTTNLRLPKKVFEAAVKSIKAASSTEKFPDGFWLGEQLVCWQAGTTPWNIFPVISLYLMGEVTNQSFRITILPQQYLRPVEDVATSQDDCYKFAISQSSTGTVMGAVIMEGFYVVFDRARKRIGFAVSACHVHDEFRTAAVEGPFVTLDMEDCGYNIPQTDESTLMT

Row | fold improvement of signal/noise ratio over parent BACE017 [1] [fold] | Caliper (MCE) BACE1 activity assay IC50 [2] [µM] | Binder
1 | > 5 | – | NEENMYCRLMGIGCG (not fully specified (C-terminus, bridges); cysteine pairing not given here, not shown: M13 major coat protein; peptide fused to its N-terminus) [SEQ ID NO 86]
2 | > 5 | – | NEVSLYCRLLDLGCG (not fully specified (C-terminus, bridges); cysteine pairing not given here, not shown: M13 major coat protein; peptide fused to its N-terminus) [SEQ ID NO 92]
3 | > 5 | – | KEESLYCRLLGLGCG (not fully specified (C-terminus, bridges); cysteine pairing not given here, not shown: M13 major coat protein; peptide fused to its N-terminus) [SEQ ID NO 89]
4 | > 5 | – | NDEHMYCRLLGLDCN (not fully specified (C-terminus, bridges); cysteine pairing not given here, not shown: M13 major coat protein; peptide fused to its N-terminus) [SEQ ID NO 94]
5 | > 5 | – | NDENMYCRLLGLGCA (not fully specified (C-terminus, bridges); cysteine pairing not given here, not shown: M13 major coat protein; peptide fused to its N-terminus) [SEQ ID NO 95]
6 | > 5 | – | AEESIYCRLLGLGCG (not fully specified (C-terminus, bridges); cysteine pairing not given here, not shown: M13 major coat protein; peptide fused to its N-terminus) [SEQ ID NO 91]
7 | > 5 | – | YEESIYCRLLGLGCG (not fully specified (C-terminus, bridges); cysteine pairing not given here, not shown: M13 major coat protein; peptide fused to its N-terminus) [SEQ ID NO 87]
8 | > 5 | – | TEESIYCRLLGLGCD (not shown: M13 major coat protein; peptide fused to its N-terminus) [SEQ ID NO 90]
9 | > 5 | – | KEESIYCRLLGHGCG (not fully specified (C-terminus, bridges); cysteine pairing not given here, not shown: M13 major coat protein; peptide fused to its N-terminus) [SEQ ID NO 85]
10 | > 5 | – | HEDHLYCRLLGIGCG (not fully specified (C-terminus, bridges); cysteine pairing not given here, not shown: M13 major coat protein; peptide fused to its N-terminus) [SEQ ID NO 88]
11 | > 5 | – | NPENNYCRLLNLGCG (not shown: M13 major coat protein; peptide fused to its N-terminus) [SEQ ID NO 93]

Second part, the binder before the results:

Row | Binder | fold improvement of signal/noise ratio over parent BACE017 [1] [fold] | Caliper (MCE) BACE1 activity assay IC50 [2] [µM]
12 | NGDNMYCRLLGLGCE (not fully specified (C-terminus, bridges); cysteine pairing not given here, not shown: M13 major coat protein; peptide fused to its N-terminus) [SEQ ID NO 76] | > 5 | –
13 | KEESIHCRLLGLGCG (not shown: M13 major coat protein; peptide fused to its N-terminus) [SEQ ID NO 80] | > 5 | –
14 | TDESIYCRLLSIACG (not fully specified (C-terminus, bridges); cysteine pairing not given here, not shown: M13 major coat protein; peptide fused to its N-terminus) [SEQ ID NO 84] | > 5 | –
15 | TEESLYCRLLGVGCG (not fully specified (C-terminus, bridges); cysteine pairing not given here, not shown: M13 major coat protein; peptide fused to its N-terminus) [SEQ ID NO 79] | > 5 | –
16 | NDESVYCRLLGIGCG (not shown: M13 major coat protein; peptide fused to its N-terminus) [SEQ ID NO 78] | > 5 | –
17 | KEDSMYCRLLGLGCG (not fully specified (C-terminus, bridges); cysteine pairing not given here, not shown: M13 major coat protein; peptide fused to its N-terminus) [SEQ ID NO 73] | > 5 | –
18 | NMESVHCRLLGLGCG (not shown: M13 major coat protein; peptide fused to its N-terminus) [SEQ ID NO 69] | > 5 | –
19 | NDDSLYCRLLGLGCG (not fully specified (C-terminus, bridges); cysteine pairing not given here, not shown: M13 major coat protein; peptide fused to its N-terminus) [SEQ ID NO 82] | > 5 | –
20 | Ac-MYCRLLGIGCG-NH2 (disulfide 3-10 (inferred)) [BACE032] | – | 8.09
21 | IEESIYCRLLGFGCG (not shown: M13 major coat protein; peptide fused to its N-terminus) [SEQ ID NO 75] | > 5 | –
22 | DVESVYCRLLGLGCG (not fully specified (C-terminus, bridges); cysteine pairing not given here, not shown: M13 major coat protein; peptide fused to its N-terminus) [SEQ ID NO 77] | > 5 | –
23 | NEESIYCRLLGLGCG (not fully specified (C-terminus, bridges); cysteine pairing not given here, not shown: M13 major coat protein; peptide fused to its N-terminus) [SEQ ID NO 70] | > 5 | –
24 | YEESIYCRLLGIGCG (not fully specified (C-terminus, bridges); cysteine pairing not given here, not shown: M13 major coat protein; peptide fused to its N-terminus) [SEQ ID NO 83] | > 5 | –
25 | VEESIYCRLLGLGCG (not shown: M13 major coat protein; peptide fused to its N-terminus) [SEQ ID NO 74] | > 5 | –
26 | NEESIYCRLLGLACG (not fully specified (C-terminus, bridges); cysteine pairing not given here, not shown: M13 major coat protein; peptide fused to its N-terminus) [SEQ ID NO 72] | > 5 | –
27 | KEENIYCRLLSLGCS (not shown: M13 major coat protein; peptide fused to its N-terminus) [SEQ ID NO 71] | > 5 | –
28 | Ac-ESMYCALLGIGCG-NH2 (disulfide 5-12 (inferred)) [BACE057] | – | > 10
29 | Ac-YCRLLGIGCG-NH2 (disulfide 2-9 (inferred)) [BACE033] | – | 10.9
30 | NVEHIHCRLLGLGCG (not fully specified (C-terminus, bridges); cysteine pairing not given here, not shown: M13 major coat protein; peptide fused to its N-terminus) [SEQ ID NO 81] | > 5 | –
